Patent US20120315270A1

What was measured:
[1] = molecular target: RSV F glycoprotein on GFP-expressing RSV (respiratory syncytial virus) (UniProt P03420)
[2] = molecular target: RSV F0 Fd (respiratory syncytial virus, strain A2) (UniProt P03420); test: densitometry of SDS-PAGE of the gel filtration complex peak

Row | Substance | EC50 (read off the curve), neutralization of GFP-expressing RSV on HEp-2 cells, flow cytometry [1] | Fabs per trimer (Fabs per trimer) [2]
1 | SYNAGIS® IgG (palivizumab) (antibody) | 0.5 nM | 
2 | palivizumab Fab |  | 2.97
